In EP4115900A1:

Target: gC1qR (C1QBP) on human T cells (human) (UniProt Q07021)
Assay: cell-based or functional assay

| Substance | PLA2G1B enzymatic activity on the membrane of CD4 T cells ([3H] arachidonic acid release) [Fold] |
| --- | --- |
| HCV core protein (Prospec HCV-011) | 26 |
| Staphylococcus aureus protein A (Sigma P6031) | 3 |
